T1: α-Catenin (endogenous, from HaCaT cells), P35221
T1 chain: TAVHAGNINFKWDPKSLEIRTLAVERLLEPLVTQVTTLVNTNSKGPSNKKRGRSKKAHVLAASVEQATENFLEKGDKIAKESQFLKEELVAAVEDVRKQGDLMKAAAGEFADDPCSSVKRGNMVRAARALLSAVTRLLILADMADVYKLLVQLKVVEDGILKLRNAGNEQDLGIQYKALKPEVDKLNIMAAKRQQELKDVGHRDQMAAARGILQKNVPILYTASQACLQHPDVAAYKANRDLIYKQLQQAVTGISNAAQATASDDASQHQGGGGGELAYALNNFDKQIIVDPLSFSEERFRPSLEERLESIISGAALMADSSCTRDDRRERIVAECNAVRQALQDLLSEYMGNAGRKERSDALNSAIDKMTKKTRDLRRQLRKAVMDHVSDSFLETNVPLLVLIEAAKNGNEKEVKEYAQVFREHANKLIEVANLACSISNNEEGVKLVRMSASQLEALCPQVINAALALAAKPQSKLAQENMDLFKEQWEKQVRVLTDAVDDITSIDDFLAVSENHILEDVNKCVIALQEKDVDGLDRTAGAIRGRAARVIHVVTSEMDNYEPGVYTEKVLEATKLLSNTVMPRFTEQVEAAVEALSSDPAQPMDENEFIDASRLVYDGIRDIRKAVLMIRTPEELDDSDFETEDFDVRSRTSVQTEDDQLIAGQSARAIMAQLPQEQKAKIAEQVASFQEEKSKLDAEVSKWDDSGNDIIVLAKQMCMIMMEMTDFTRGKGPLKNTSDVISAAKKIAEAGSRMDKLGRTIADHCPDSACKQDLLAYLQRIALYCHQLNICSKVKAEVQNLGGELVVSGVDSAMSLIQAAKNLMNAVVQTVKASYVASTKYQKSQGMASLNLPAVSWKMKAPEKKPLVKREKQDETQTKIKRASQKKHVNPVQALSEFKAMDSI

T2: Recombinant human α-Catenin protein
T2 chain: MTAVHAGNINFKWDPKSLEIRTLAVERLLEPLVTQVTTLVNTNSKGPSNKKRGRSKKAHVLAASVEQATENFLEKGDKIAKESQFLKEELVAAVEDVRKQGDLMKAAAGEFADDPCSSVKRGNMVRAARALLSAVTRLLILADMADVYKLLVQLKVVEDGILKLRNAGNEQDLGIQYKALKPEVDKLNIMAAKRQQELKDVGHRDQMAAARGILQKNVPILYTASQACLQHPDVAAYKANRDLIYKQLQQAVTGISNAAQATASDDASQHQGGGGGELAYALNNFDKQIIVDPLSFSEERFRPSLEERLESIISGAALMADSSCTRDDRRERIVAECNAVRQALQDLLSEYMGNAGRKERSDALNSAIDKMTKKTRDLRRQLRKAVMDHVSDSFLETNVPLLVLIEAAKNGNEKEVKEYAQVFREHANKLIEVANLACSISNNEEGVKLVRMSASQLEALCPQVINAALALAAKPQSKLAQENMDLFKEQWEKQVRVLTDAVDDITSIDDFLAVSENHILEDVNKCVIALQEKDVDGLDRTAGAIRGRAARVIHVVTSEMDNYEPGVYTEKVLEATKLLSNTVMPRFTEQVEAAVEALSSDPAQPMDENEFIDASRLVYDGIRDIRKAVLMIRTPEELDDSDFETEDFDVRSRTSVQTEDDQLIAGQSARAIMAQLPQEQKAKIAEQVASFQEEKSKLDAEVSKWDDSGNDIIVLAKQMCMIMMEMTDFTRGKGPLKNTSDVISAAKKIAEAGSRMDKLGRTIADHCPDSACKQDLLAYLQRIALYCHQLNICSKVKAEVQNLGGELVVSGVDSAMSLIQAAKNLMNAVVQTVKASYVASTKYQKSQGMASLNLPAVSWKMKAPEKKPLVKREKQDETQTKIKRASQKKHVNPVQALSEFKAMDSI


Legend:
[1] = biological target: T1, α-Catenin (endogenous, from HaCaT …)
[2] = biological target: recombinant mouse H3/H4 heterodimer, P62806
[3] = biological target: T2, Recombinant human α-Catenin protein
[4] = biological target: Yes associated protein 1 (YAP) (endogenous, from mouse dorsal skin) (mouse, UniProt P46938 1-488, limits assumed); assay: co-immunoprecipitation of endogenous proteins from mouse skin, Western blot
Sequence of Yes associated protein 1 (YAP) (endogenous, from mouse dorsal skin) (P46938 whole entry): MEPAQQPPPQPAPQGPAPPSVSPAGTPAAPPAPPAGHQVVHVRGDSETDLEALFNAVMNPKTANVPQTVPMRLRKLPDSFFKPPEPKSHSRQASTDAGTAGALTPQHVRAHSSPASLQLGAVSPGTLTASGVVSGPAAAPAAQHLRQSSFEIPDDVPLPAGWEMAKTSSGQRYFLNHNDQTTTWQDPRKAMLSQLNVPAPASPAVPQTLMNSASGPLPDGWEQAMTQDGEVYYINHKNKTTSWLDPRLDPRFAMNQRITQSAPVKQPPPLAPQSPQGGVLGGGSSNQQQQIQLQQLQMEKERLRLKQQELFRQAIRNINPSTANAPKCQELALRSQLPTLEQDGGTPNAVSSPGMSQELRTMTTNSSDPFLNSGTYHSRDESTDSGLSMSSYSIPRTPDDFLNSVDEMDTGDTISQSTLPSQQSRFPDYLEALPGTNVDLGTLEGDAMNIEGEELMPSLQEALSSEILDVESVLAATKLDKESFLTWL
Method: Protein extraction, Western Blot and Co-immunoprecipitation—Skin tissues were disrupted using homogenizer. Cells were washed with ice-cold PBS and collected on ice before centrifugation (4,000 rpm, 5 minutes at 4° C.), lysed in lysis buffer with protease inhibitors, and then incubated on ice for 30 minutes. After centrifugation (14,000 rpm, 15 minutes at 4° C.), the proteins (supernatant) were removed and quantified (Bradford reagent, BioRad). The NE-PER Nuclear and Cytoplasmic Extraction Reagents Kit (Thermo Scientific) was used to separate cellular fractions. For CO-IP, equal amounts of cell lysates were incubated with antibody, and immunocomplexes were captured on Protein-A/G Agarose beads. […] Membranes were blocked in 5% dry skimmed milk in PBS-T and incubated with primary antibodies (1:1000).

Binder	cleavage in HaCaT protein lysate, Western blot with antibodies for the C and N termini of α-Catenin [1]	release of 14-3-3 from α-Catenin pull-down complexes after in vitro cleavage, Western blot [1]	in vitro cleavage assay, Coomassie staining [2]	in vitro cleavage assay, SDS-electrophoresis and Coomassie staining [3]	binding result [4]
recombinant human active caspase-3 (protein) SGISLDNSYKMDYPEMGLCIIINNKNFHKSTGMTSRSGTDVDAANLRETFRNLKYEVRNKNDLTREEIVELMRDVSKEDHSKRSSFVCVLLSHGEEGIIFGTNGPVDLKKITNFFRGDRCRSLTGKPKLFIIQACRGTELDCGIETDSGVDDDMACHKIPVEADFLYAYSTAPGYYSWRNSKDGSWFIQSLCAMLKQYADKLEFMHILTRVNRKVATEFESFSFDATFHAKKQIPCIVSMLTKELYFYH	addition of cleaved Caspase-3 results in a major decrease in the level of full-length α-Catenin	Caspase-3-mediated cleavage facilitates the release of 14-3-3 from α-Catenin	Caspase-3 was not able to cleave either histones H2A/H2B or H3/H4	a dramatic decrease in the levels of full length α-Catenin (FIG. 4M) (Caspase-3 cleaved α-Catenin), giving rise to two novel bands at a molecular weight of ˜14 kDa and ˜17 kDa	–
activated (cleaved) Caspase-3 (endogenous, from mouse dorsal skin) (enzyme, UniProt P70677 29-277, looked up, also called CP3) SGIYLDSSYKMDYPEMGICIIINNKNFHKSTGMSSRSGTDVDAANLRETFMGLKYQVRNKNDLTREDILELMDSVSKEDHSKRSSFVCVILSHGDEGVIYGTNGPVELKKLTSFFRGDYCRSLTGKPKLFIIQACRGTELDCGIETDSGTDEEMACQKIPVEADFLYAYSTAPGYYSWRNSKDGSWFIQSLCSMLKLYAHKLEFMHILTRVNRKVATEFESFSLDSTFHAKKQIPCIVSMLTKELYFYH	–	–	–	–	no binding

Reference: patent US20200046796A1 (TECHNION RESEARCH AND DEVELOPMENT FOUNDATION, published 2020)
